Results: publication doi:10.1101/2024.12.23.630205 (bioRxiv, 2024)
Several values for one entry are separate records, joined by “and”; a condition that tells them apart may be missing. Equal entries are not always repeated.

T1: hSIRT1 (114-510 aa), purified, thrombin-digested (human, UniProt Q96EB6 114-510, NT-647 fluorescent dye (in the MST only))
T1 sequence (looked up): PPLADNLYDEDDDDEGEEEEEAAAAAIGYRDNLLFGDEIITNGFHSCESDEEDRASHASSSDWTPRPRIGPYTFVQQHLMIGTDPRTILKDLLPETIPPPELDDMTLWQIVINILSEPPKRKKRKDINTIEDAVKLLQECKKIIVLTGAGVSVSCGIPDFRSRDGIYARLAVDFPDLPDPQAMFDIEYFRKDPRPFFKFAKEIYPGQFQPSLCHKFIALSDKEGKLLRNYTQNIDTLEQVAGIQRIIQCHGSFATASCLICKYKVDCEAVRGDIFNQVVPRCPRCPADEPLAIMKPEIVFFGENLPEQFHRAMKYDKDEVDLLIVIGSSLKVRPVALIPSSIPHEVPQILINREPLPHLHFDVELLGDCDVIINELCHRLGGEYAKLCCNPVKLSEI

B1: hSIRT2 (36-356 aa), purified, thrombin-digested (domain or fragment, human, UniProt Q8IXJ6 36-356, looked up)
chain: ADMDFLRNLFSQTLSLGSQKERLLDELTLEGVARYMQSERCRRVICLVGAGISTSAGIPDFRSPSTGLYDNLEKYHLPYPEAIFEISYFKKHPEPFFALAKELYPGQFKPTICHYFMRLLKDKGLLLRCYTQNIDTLERIAGLEQEDLVEAHGTFYTSHCVSASCRHEYPLSWMKEKIFSEVTPKCEDCQSLVKPDIVFFGESLPARFFSCMQSDFLKVDLLLVMGTSLQVQPFASLISKAPLSTPRLLINKEKAGQSDPFLGMIMGLGGGMDFDSKKAYRDVAWLGECDQGCLALAELLGWKKELEDLVRREHASIDAQS
B2: N-terminal hTULP3 (1-148 aa, construct-1), GST tag removed (domain or fragment, human, UniProt O75386 1-148, looked up)
chain: MEASRCRLSPSGDSVFHEEMMKMRQAKLDYQRLLLEKRQRKKRLEPFMVQPNPEARLRRAKPRASDEQTPLVNCHTPHSNVILHGIDGPAAVLKPDEVHAPSVSSSVVEEDAENTVDTASKPGLQERLQKHDISESVNFDEETDGISQ
B3: GST-tagged N-terminal hTULP3 (1-148 aa, construct-1) (domain or fragment, human, UniProt O75386 1-148, looked up)
chain: B2 chain
B4: GST-TULP3 (60-442 aa, construct-2) (domain or fragment, human, UniProt O75386 60-442, looked up)
chain: AKPRASDEQTPLVNCHTPHSNVILHGIDGPAAVLKPDEVHAPSVSSSVVEEDAENTVDTASKPGLQERLQKHDISESVNFDEETDGISQSACLERPNSASSQNSTDTGTSGSATAAQPADNLLGDIDDLEDFVYSPAPQGVTVRCRIIRDKRGMDRGLFPTYYMYLEKEENQKIFLLAARKRKKSKTANYLISIDPVDLSREGESYVGKLRSNLMGTKFTVYDRGICPMKGRGLVGAAHTRQELAAISYETNVLGFKGPRKMSVIIPGMTLNHKQIPYQPQNNHDSLLSRWQNRTMENLVELHNKAPVWNSDTQSYVLNFRGRVTQASVKNFQIVHKNDPDYIVMQFGRVADDVFTLDYNYPLCAVQAFGIGLSSFDSKLACE
B5: deleted hTULP3 (60-442 aa, construct-2), GST tag removed (domain or fragment, human, UniProt O75386 60-442, looked up)
chain: B4 chain

Tests used:
[1] = target: B4; experiment: SPR
[2] = target: T1, hSIRT1 (114-510 aa), purified, …; experiment: MST
SEC = target: the molecule itself; experiment: SEC
[3] = target: B1; experiment: SPR
[4] = target: T1, hSIRT1 (114-510 aa), purified, …; experiment: SPR
native gel or EMSA = target: the molecule itself; experiment: native gel or EMSA

Binder: B1
Kd [1]: 66.7 µM and 66.5 µM

Binder: B2
Kd [2]: 28 µM
stoichiometry N (SEC): 2

Binder: B3
binding result [3]: binds

Binder: B4
Kd [4]: 8.1 µM

Binder: B5
stoichiometry N (native gel or EMSA): 2
